As a reminder, the stoichiometry N is a count of units in the complex or per binding partner.

What all share (settings): remark: other sources report otherwise
Assay [1] addresses T1, wild type (WT) human peripheral myelin protein 22 (PMP22) (human), Q01453.
T1 chain: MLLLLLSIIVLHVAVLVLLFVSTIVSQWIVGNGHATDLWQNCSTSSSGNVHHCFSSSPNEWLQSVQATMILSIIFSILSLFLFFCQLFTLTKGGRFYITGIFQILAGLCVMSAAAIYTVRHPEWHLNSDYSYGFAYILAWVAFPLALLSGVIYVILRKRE
The assay is described as follows: cross-linking.

Assay [2] deals with T1, wild type (WT) human peripheral myelin …. Kind of assay: cross-linking.
For assay [3] the target is unchanged. The assay is described as follows: cross-linking.
Assay [4] has the same target. Kind of assay: SEC.
For assay [5] the target is unchanged. The assay is described as follows: cross-linking.

B1: wild type (WT) human peripheral myelin protein 22 (PMP22), Q01453 1-160 (natural protein)
chain: T1 chain
For the molecule B1, the fraction of cross-linked dimer came out at 0.5 in assay [1], 0.3 in assay [2], 0.2 in assay [3] and 0.6 in assay [5]. Besides, the stoichiometry N in assay [1] and in assay [4] was 2 throughout.
